Key:
full length Ku80 = molecular target: T1, full length Ku80 (Homo sapiens, UniProt P13010); experiment: GST pull-down of Ku80 from biotinylated bacterial extract by GST-Ku70 derivatives; type: binding; conditions: GST-fusion on glutathione agarose beads, biotinylated bacterial extract containing Ku80, seven NETN washes, streptavidin-HRP blot
T1 construct: incubated with biotinylated bacterial cell extracts containing full length Ku80; made in house; host or cells: E. coli BL21 pLysS
Description: (§1) Full length Ku70 and Ku80 were cloned in frame with the glutathione binding domain of human glutathione S-transferase (GST) by sub-cloning into pGEX2TKP (a derivative of […] by Pharmacia). Deletion mutants of Ku70 and Ku80 were cloned by Pfu polymerase amplification and cloning into pGEX2TKP. Expression from all pGEX2TKP constructs was carried out in either DH5α or DS941 strains of E. coli. Bacterial cell extracts were produced by sonication in Phosphate-buffered saline (PBS; 138 mM NaCl, 3 mM KCl, 10 mM Phosphate buffer pH 7.4) containing 1% Triton-X100 (Sigma) and protease inhibitor tablets (Boehringer). GST-fusion proteins were purified by passing bacterial lysates over Glutathione Agarose beads (Pharmacia) and washing extensively in PBS containing 1% Triton-X100 and then in PBS alone. The beads/proteins were stored at −80° C. prior to use.
Ku70 and Ku80 were cloned into pET30a (Novagen) to generate a N-terminal hexa-Histidine tag and expressed at low levels in E. coli (BL21 pLysS). […]
(§2) In a complementary approach to the yeast 2-hybrid technique, the inventors used a “pull-down” assay to detect interactions between recombinant deletion derivatives of the two Ku subunits. […] Interacting proteins were detected by probing these western blots with streptavidin that was conjugated to horse radish peroxidase (HRP). […]

full length Ku70 = molecular target: T2, full length Ku70 (Homo sapiens, UniProt P12956); experiment: GST pull-down of Ku70 from biotinylated bacterial extract by GST-Ku80 derivatives; type: binding; conditions: GST-fusion on glutathione agarose beads; biotinylated bacterial extract containing Ku70; seven NETN washes; streptavidin-HRP blot
T2 construct: incubated with biotinylated bacterial cell extracts containing full length Ku70; made in house; host or cells: E. coli BL21 pLysS
Description: as §1, with “use. […]” for “use.”
as §2
The inventors tested a range of Ku80 deletion derivatives expressed as GST-fusions for their ability to interact with full-length Ku70. […]

T1 sequence (P13010 whole entry, the tested form may be a part): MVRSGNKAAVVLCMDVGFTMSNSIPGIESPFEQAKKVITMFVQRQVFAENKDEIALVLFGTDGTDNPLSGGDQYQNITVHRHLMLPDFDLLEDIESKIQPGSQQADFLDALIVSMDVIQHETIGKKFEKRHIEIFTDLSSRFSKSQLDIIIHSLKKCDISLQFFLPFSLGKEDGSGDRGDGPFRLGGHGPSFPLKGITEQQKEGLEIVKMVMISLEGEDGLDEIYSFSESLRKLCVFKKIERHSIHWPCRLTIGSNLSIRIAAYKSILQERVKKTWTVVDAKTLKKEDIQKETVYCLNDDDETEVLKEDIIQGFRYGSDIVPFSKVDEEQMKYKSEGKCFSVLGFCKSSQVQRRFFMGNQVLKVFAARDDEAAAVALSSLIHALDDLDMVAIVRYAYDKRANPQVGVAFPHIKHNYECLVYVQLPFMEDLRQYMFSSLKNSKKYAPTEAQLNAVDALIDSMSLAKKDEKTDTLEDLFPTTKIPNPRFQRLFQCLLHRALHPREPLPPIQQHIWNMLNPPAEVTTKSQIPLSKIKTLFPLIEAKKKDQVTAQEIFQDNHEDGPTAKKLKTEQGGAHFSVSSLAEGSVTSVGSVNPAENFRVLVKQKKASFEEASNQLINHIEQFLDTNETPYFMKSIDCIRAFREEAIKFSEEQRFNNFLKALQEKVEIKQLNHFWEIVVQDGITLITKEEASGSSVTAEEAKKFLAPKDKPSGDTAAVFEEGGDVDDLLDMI
T2 sequence (P12956 whole entry, the tested form may be a part): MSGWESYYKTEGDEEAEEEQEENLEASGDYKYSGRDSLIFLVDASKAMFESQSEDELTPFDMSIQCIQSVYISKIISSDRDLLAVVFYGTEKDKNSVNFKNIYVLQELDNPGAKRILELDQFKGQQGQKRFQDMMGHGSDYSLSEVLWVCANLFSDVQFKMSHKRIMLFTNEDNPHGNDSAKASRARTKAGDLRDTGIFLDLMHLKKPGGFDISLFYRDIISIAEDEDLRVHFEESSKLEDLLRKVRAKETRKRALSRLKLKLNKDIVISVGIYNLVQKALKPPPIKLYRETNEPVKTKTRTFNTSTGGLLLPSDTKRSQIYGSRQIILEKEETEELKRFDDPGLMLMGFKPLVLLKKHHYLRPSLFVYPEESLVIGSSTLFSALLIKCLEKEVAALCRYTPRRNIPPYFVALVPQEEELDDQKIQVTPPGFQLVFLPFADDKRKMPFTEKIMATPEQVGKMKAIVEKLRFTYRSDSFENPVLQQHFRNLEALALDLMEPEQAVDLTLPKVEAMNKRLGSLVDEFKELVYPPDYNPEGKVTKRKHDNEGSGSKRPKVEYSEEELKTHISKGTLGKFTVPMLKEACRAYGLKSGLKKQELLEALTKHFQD

interaction with full-length Ku80 (full length Ku80; listed as Full-length Ku70) | Substance | interaction with full-length Ku80 (full length Ku80) | interaction with full-length Ku70 (full length Ku70)
binds to Ku80 efficiently | GST-Ku70: full length human Ku70 fused to glutathione S-transferase, expressed in E. coli | only a single species is retained efficiently on the beads | 
 | GST-Ku80: full length human Ku80 fused to glutathione S-transferase, expressed in E. coli |  | only a single species is retained efficiently on the beads

Reference: patent publication US6753151B1, “Interactions of Ku polypeptides and applications thereof” (Kudos Pharmaceuticals Limited, priority 1999, dated 2004)
